Here are results for seven molecules from PMC9486893, “Protein Conformational Space at the Edge of Allostery: Turning a Nonallosteric Malate Dehydrogenase into an “Allosterized” Enzyme Using Evolution-Guided Punctual Mutations” (Molecular Biology and Evolution, 2022).

Data set [1] concerns the target Archaeoglobus fulgidus malate dehydrogenase mutant 1 (R102Q) (Archaeoglobus fulgidus). Kind of data set: SEC-MALS; SEC-MALLS with refractometry; Enrich 650 column, 50 mM Tris-HCl pH 7.2, 50 mM NaCl, room temperature, 50 ul at ~1 mg/ml, 0.5 ml/min; self-association (dimer).
The target in data set [2] is Archaeoglobus fulgidus malate dehydrogenase mutant 2 (P250I) (Archaeoglobus fulgidus). The data set is described as above.
In data set [3] the target is Archaeoglobus fulgidus malate dehydrogenase mutant 3 (R102Q and P250I) (Archaeoglobus fulgidus). The description is as above.
Substrate in data set [4]: CC(=O)C(=O)O
Kind of data set: purified protein. It counts as biochemical, Archaeoglobus fulgidus. The note with it: 0.5 mM NADH, MES pH 6.0, 50 mM NaCl, 70 °C (340 K in Figure 3).

Substrate in data set [5]: O=C(O)CC(=O)C(=O)O
Kind of data set: purified protein. The data set is classed as biochemical, Archaeoglobus fulgidus. The note with it: 0.5 mM NADH, 50 mM potassium phosphate pH 7.0, 50 mM NaCl.

Data set [6] concerns the molecule itself. Kind of data set: SEC-MALS; SEC-MALLS with refractometry; Enrich 650 column, 50 mM Tris-HCl pH 7.2, 50 mM NaCl, room temperature, 50 ul at ~1 mg/ml, 0.5 ml/min; self-association (dimer).
Where [7] appears, read: mutant 3, sigmoid (homotropic activation).
Setting [8] is: 70 °C (340 K in Figure 3), mutant 2, hyperbolic, text b25 gives 1.31 mM.
Setting [9] is: 70 °C (340 K in Figure 3), substrate inhibition at excess OAA.

“Archaeoglobus fulgidus malate dehydrogenase mutant 1 (R102Q) (enzyme)”: the stoichiometry N in data set [1] was 2.

In data set [2], “Archaeoglobus fulgidus malate dehydrogenase mutant 2 (P250I) (enzyme)” returned a stoichiometry N of 2.

Consider “Archaeoglobus fulgidus malate dehydrogenase mutant 3 (R102Q and P250I) (enzyme)”, for which, in data set [3], the stoichiometry N was 2.

B1: Wt A. fulgidus MalDH (Archaeoglobus fulgidus DSM 4304; P216I/R81Q) (protein)
chain: MKLGFVGAGRVGSTSAFTCLLNLDVDEIALVDIAEDLAVGEAMDLAHAAAGIDKYPKIVGGADYSLLKGSEIIVVTAGLAQKPGMTRLDLAHKNAGIIKDIAKKIVENAPESKILVVTNPMDVMTYIMWKESGKPRNEVFGMGNQLDSQRLKERLYNAGARNIRRAWIIGEHGDSMFVAKSLADFDGEVDWEAVENDVRFVAAEVIKRKGATIFGIAVAIYRMVKAVVEDTGEIIPTSMILQGEYGIENVAVGVPAKLGKNGAEVADIKLSDEEIEKLRNSAKILRERLEELGY
notes: full-length, codon-optimized synthetic gene in pET-20a (NdeI/BamHI), E. coli BL21 DE3 pLysS; no tag mentioned; homodimer, theoretical 72 kDa (SEC-MALLS 62-65 kDa)
In the case of B1, in data set [4] (setting [7]), the K0.5 was 100 mM, the kcat is 21 s⁻¹ and the kcat/Km amounted to 210 M⁻¹ s⁻¹.

B2: Wt A. fulgidus MalDH (Archaeoglobus fulgidus DSM 4304; P216I) (protein)
chain: MKLGFVGAGRVGSTSAFTCLLNLDVDEIALVDIAEDLAVGEAMDLAHAAAGIDKYPKIVGGADYSLLKGSEIIVVTAGLARKPGMTRLDLAHKNAGIIKDIAKKIVENAPESKILVVTNPMDVMTYIMWKESGKPRNEVFGMGNQLDSQRLKERLYNAGARNIRRAWIIGEHGDSMFVAKSLADFDGEVDWEAVENDVRFVAAEVIKRKGATIFGIAVAIYRMVKAVVEDTGEIIPTSMILQGEYGIENVAVGVPAKLGKNGAEVADIKLSDEEIEKLRNSAKILRERLEELGY
notes: as for B1
For B2, in data set [5] (setting [8]), the K0.5 was determined as 1.3 mM, the kcat came out at 175 s⁻¹ and the kcat/Km is 130000 M⁻¹ s⁻¹.

B3: Wild-type Archaeoglobus fulgidus malate dehydrogenase (enzyme)
chain: MKLGFVGAGRVGSTSAFTCLLNLDVDEIALVDIAEDLAVGEAMDLAHAAAGIDKYPKIVGGADYSLLKGSEIIVVTAGLARKPGMTRLDLAHKNAGIIKDIAKKIVENAPESKILVVTNPMDVMTYIMWKESGKPRNEVFGMGNQLDSQRLKERLYNAGARNIRRAWIIGEHGDSMFVAKSLADFDGEVDWEAVENDVRFVAAEVIKRKGATIFGPAVAIYRMVKAVVEDTGEIIPTSMILQGEYGIENVAVGVPAKLGKNGAEVADIKLSDEEIEKLRNSAKILRERLEELGY
notes: synthetic gene codon-optimised for E. coli, in pET-20a (NdeI/BamHI); No tag is mentioned; purification was by heat treatment, ion exchange and gel filtration; Homodimer; also called Wt A. fulgidus MalDH; Wt enzyme; source: E. coli BL21 DE3 pLysS, purified (70 °C heat step, Q sepharose, gel filtration)
As to B3, in data set [5] (setting [9]), the K0.5 worked out at 0.1 mM, the kcat amounted to 417 s⁻¹ and the kcat/Km turned out to be 4.3e+06 M⁻¹ s⁻¹. The “stoichiometry N” value in data set [6] came to 2.

B4: Wt A. fulgidus MalDH (Archaeoglobus fulgidus DSM 4304; R81Q) (protein)
chain: MKLGFVGAGRVGSTSAFTCLLNLDVDEIALVDIAEDLAVGEAMDLAHAAAGIDKYPKIVGGADYSLLKGSEIIVVTAGLAQKPGMTRLDLAHKNAGIIKDIAKKIVENAPESKILVVTNPMDVMTYIMWKESGKPRNEVFGMGNQLDSQRLKERLYNAGARNIRRAWIIGEHGDSMFVAKSLADFDGEVDWEAVENDVRFVAAEVIKRKGATIFGPAVAIYRMVKAVVEDTGEIIPTSMILQGEYGIENVAVGVPAKLGKNGAEVADIKLSDEEIEKLRNSAKILRERLEELGY
notes: as for B1
For B4, in data set [4] (mutant 1, pH 6.0), the K0.5 is 5.6 mM, the kcat amounted to 40 s⁻¹ and the kcat/Km is 7100 M⁻¹ s⁻¹. In addition, in data set [5] (70 °C, mutant 1, pH 7.0), the K0.5 was determined as 14 mM, the kcat turned out to be 12 s⁻¹ and the kcat/Km came out at 900 M⁻¹ s⁻¹.
